Earlier results as cited in article PMC5040164.

Target: SAS1B (Mus musculus) (UniProt Q6HA09)
Sequence of UniProt Q6HA09 (Q6HA09 24-435): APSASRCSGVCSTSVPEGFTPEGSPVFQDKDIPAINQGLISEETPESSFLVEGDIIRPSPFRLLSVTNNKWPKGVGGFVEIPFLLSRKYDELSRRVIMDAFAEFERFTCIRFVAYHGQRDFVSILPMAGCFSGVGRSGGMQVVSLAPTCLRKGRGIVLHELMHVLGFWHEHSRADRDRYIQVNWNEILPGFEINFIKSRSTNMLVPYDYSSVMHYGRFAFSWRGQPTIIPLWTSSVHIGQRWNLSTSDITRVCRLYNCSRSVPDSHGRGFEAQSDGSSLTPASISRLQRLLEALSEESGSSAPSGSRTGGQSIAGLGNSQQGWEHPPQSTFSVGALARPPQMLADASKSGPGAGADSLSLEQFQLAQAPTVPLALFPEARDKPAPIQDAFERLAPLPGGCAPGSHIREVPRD

Kd: 0.32 nM
Substance: SLLP1 (from UniProt Q9D9X8)
